Experimental data as given in the supplement of paper PMC10899765.

Columns and labels:
Conditions in all cases: 20 nM; 72 h
[1] = test system: MCF10A; experiment: percent viability (nuclei count relative to siNT); higher = more viable cells
Protocol: (§1)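 After 72 h, cells were fixed and stained with Hoechst and anti-fibrillarin, and nucleoli per nucleus were counted with CellProfiler. Values are plate-adjusted percent effect for the one-nucleolus and 5+ nucleoli phenotypes, normalised to siNT (0%) and to the positive controls siNOL11 or siKIF11 (100%), as the mean of biological triplicates. Percent viability is the nuclei count relative to siNT.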

[2] = test system: MCF10A; experiment: 5+ nucleoli phenotype percent effect (relative to siNT 0% and siKIF11 100%); higher = more cells with five or more nucleoli
Protocol: as §1

[3] = test system: MCF10A; experiment: one-nucleolus phenotype percent effect (relative to siNT 0% and siNOL11 100%); higher = more cells with one nucleolus (ribosome biogenesis inhibition)
Protocol: as §1

GGCUGGUCAGAUGGGAGUG [hsa-miR-6131]
percent viability [1]: 71% | 5+ nucleoli phenotype percent effect [2]: 1.34% | one-nucleolus phenotype percent effect [3]: -3.05%

GGCUUGCAUGGGGGACUGG [hsa-miR-4327]
percent viability [1]: 40.2% | 5+ nucleoli phenotype percent effect [2]: 7.45% | one-nucleolus phenotype percent effect [3]: 12.4%

GGCUUUCUAGUCUCAGCUCUCC [hsa-miR-3160-5p]
percent viability [1]: 110% | 5+ nucleoli phenotype percent effect [2]: 38.5% | one-nucleolus phenotype percent effect [3]: -16.4%

GGGAAAAGGAAGGGGGAGGA [hsa-miR-6124]
percent viability [1]: 180% | 5+ nucleoli phenotype percent effect [2]: 53.1% | one-nucleolus phenotype percent effect [3]: -29.7%

GGGAAGAGCUGUACGGCCUUC [hsa-miR-6077]
percent viability [1]: 37.4% | 5+ nucleoli phenotype percent effect [2]: -35.5% | one-nucleolus phenotype percent effect [3]: 32.5%

GGGACCAUCCUGCCUGCUGUGG [hsa-miR-3619-3p]
percent viability [1]: 44.4% | 5+ nucleoli phenotype percent effect [2]: 20.9% | one-nucleolus phenotype percent effect [3]: -10.4%

GGGACCCAGGGAGAGACGUAAG [hsa-miR-711]
percent viability [1]: 80.1% | 5+ nucleoli phenotype percent effect [2]: 30.4% | one-nucleolus phenotype percent effect [3]: -15.3%

GGGACUAGGAUGCAGACCUCC [hsa-miR-6503-3p]
percent viability [1]: 49.8% | 5+ nucleoli phenotype percent effect [2]: -6.73% | one-nucleolus phenotype percent effect [3]: 9.94%

GGGAGAAGGGUCGGGGC [hsa-miR-4516]
percent viability [1]: 94.1% | 5+ nucleoli phenotype percent effect [2]: 31.9% | one-nucleolus phenotype percent effect [3]: -25.4%

GGGAGCCAGGAAGUAUUGAUGU [hsa-miR-505-5p]
percent viability [1]: 68.7% | 5+ nucleoli phenotype percent effect [2]: 1.85% | one-nucleolus phenotype percent effect [3]: 10.3%

GGGAGGUGUGAUCUCACACUCG [hsa-miR-3689d]
percent viability [1]: 9.66% | 5+ nucleoli phenotype percent effect [2]: 10.8% | one-nucleolus phenotype percent effect [3]: 24.8%

GGGAGUCUACAGCAGGG [hsa-miR-4294]
percent viability [1]: 37.7% | 5+ nucleoli phenotype percent effect [2]: -26.3% | one-nucleolus phenotype percent effect [3]: 24%

GGGAGUGCAGGGCAGGGUUUC [hsa-miR-504-3p]
percent viability [1]: 36% | 5+ nucleoli phenotype percent effect [2]: -22.6% | one-nucleolus phenotype percent effect [3]: 14.7%

GGGAUAUGAAGAAAAAU [hsa-miR-3201]
percent viability [1]: 59.6% | 5+ nucleoli phenotype percent effect [2]: 40.5% | one-nucleolus phenotype percent effect [3]: -15.6%

GGGAUGGUAGACCGGUGACGUGC [hsa-miR-1193]
percent viability [1]: 24.3% | 5+ nucleoli phenotype percent effect [2]: -23% | one-nucleolus phenotype percent effect [3]: 19.2%

GGGAUUCUGUAGCUUCCU [hsa-miR-4320]
percent viability [1]: 28.6% | 5+ nucleoli phenotype percent effect [2]: -18.6% | one-nucleolus phenotype percent effect [3]: 50%

GGGCCUCUCUUGUCAUCCUGCAG [hsa-miR-6744-3p]
percent viability [1]: 81.6% | 5+ nucleoli phenotype percent effect [2]: 49.2% | one-nucleolus phenotype percent effect [3]: -21.1%

GGGCGACAAAGCAAGACUCUUUCUU [hsa-miR-1273a]
percent viability [1]: 78.8% | 5+ nucleoli phenotype percent effect [2]: -17.3% | one-nucleolus phenotype percent effect [3]: 6.41%

GGGCGCCUGUGAUCCCAAC [hsa-miR-566]
percent viability [1]: 81.2% | 5+ nucleoli phenotype percent effect [2]: 39.3% | one-nucleolus phenotype percent effect [3]: -9.02%

GGGCUAGGGCCUGCUGCCCCC [hsa-miR-6069]
percent viability [1]: 54.3% | 5+ nucleoli phenotype percent effect [2]: 21.6% | one-nucleolus phenotype percent effect [3]: -4.55%

GGGCUCACAUCACCCCAU [hsa-miR-4284]
percent viability [1]: 40.5% | 5+ nucleoli phenotype percent effect [2]: 8.32% | one-nucleolus phenotype percent effect [3]: -1.42%

GGGCUGGGGCGCGGGGAGGU [hsa-miR-5787]
percent viability [1]: 150% | 5+ nucleoli phenotype percent effect [2]: 60.6% | one-nucleolus phenotype percent effect [3]: -30.8%

GGGGAAAGCGAGUAGGGACAUUU [hsa-miR-3153]
percent viability [1]: 55.6% | 5+ nucleoli phenotype percent effect [2]: 13.5% | one-nucleolus phenotype percent effect [3]: -1%

GGGGAACUGUAGAUGAAAAGGC [hsa-miR-8059]
percent viability [1]: 101% | 5+ nucleoli phenotype percent effect [2]: 34.6% | one-nucleolus phenotype percent effect [3]: -28.4%

GGGGAGCGAGGGGCGGGGC [hsa-miR-6090]
percent viability [1]: 164% | 5+ nucleoli phenotype percent effect [2]: 36.1% | one-nucleolus phenotype percent effect [3]: -21.8%

GGGGAGCUGUGGAAGCAGUA [hsa-miR-920]
percent viability [1]: 53.2% | 5+ nucleoli phenotype percent effect [2]: 23.5% | one-nucleolus phenotype percent effect [3]: -6.81%

GGGGAGGUGUGCAGGGCUGG [hsa-miR-6799-5p]
percent viability [1]: 93.2% | 5+ nucleoli phenotype percent effect [2]: 37% | one-nucleolus phenotype percent effect [3]: -29.7%

GGGGCCUGGCGGUGGGCGG [hsa-miR-2861]
percent viability [1]: 80.1% | 5+ nucleoli phenotype percent effect [2]: 87.4% | one-nucleolus phenotype percent effect [3]: -37.2%

GGGGCGCGGCCGGAUCG [hsa-miR-3178]
percent viability [1]: 93.3% | 5+ nucleoli phenotype percent effect [2]: 51.5% | one-nucleolus phenotype percent effect [3]: -32.2%

GGGGCUGGGCGCGCGCC [hsa-miR-4492]
percent viability [1]: 33.5% | 5+ nucleoli phenotype percent effect [2]: -0.324% | one-nucleolus phenotype percent effect [3]: 24.8%

GGGGCUGGGGCCGGGGCCGAGC [hsa-miR-762]
percent viability [1]: 59.8% | 5+ nucleoli phenotype percent effect [2]: 53.9% | one-nucleolus phenotype percent effect [3]: -31.4%

GGGGCUGUGAUUGACCAGCAGG [hsa-miR-4675]
percent viability [1]: 24.1% | 5+ nucleoli phenotype percent effect [2]: -11.5% | one-nucleolus phenotype percent effect [3]: 10.5%

GGGGGAAGAAAAGGUGGGG [hsa-miR-4271]
percent viability [1]: 72.2% | 5+ nucleoli phenotype percent effect [2]: 20.1% | one-nucleolus phenotype percent effect [3]: -5.03%

GGGGGCCGAUACACUGUACGAGA [hsa-miR-128-2-5p]
percent viability [1]: 91.1% | 5+ nucleoli phenotype percent effect [2]: 34.6% | one-nucleolus phenotype percent effect [3]: -25.2%

GGGGGGAUGUGCAUGCUGGUU [hsa-miR-4525]
percent viability [1]: 26.2% | 5+ nucleoli phenotype percent effect [2]: -7.81% | one-nucleolus phenotype percent effect [3]: 22.7%

GGGGGGGCAGGAGGGGCUCAGGG [hsa-miR-328-5p]
percent viability [1]: 129% | 5+ nucleoli phenotype percent effect [2]: 33.9% | one-nucleolus phenotype percent effect [3]: -28.4%
